From publication PMC10057298, “Kinetic Characterization and Catalytic Mechanism of N-Acetylornithine Aminotransferase Encoded by slr1022 Gene from Synechocystis sp. PCC6803” (International Journal of Molecular Sciences, 2023)

Tests used:
Slr1022 = biological target: T1, Slr1022 (Synechocystis sp. PCC 6803, UniProt P73133); test: UV-visible absorption at […] nm (internal aldimine); assay type: binding; details: 100 mmol/L Tris-HCl pH 8.5; covalent (Schiff base)
T1 construct: gene argD
T1 sequence (P73133 1-429): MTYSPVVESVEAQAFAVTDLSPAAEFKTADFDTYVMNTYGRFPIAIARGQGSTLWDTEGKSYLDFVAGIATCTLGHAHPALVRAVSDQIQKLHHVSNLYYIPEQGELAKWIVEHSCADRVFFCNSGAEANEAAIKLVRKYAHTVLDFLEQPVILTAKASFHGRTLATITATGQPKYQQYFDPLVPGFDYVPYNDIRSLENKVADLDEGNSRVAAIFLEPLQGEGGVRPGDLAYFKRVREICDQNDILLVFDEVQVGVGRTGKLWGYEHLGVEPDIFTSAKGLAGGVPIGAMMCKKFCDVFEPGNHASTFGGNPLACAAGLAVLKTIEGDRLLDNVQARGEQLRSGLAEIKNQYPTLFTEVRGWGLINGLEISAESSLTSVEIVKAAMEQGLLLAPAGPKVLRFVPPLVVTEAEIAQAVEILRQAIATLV

purified protein [1] = substrate: NCCCC(=O)O; test: purified protein; details: 0.5 mmol/L α-KG, 0.05 mmol/L PLP, 2 mmol/L Mg2+, 2 mmol/L NADP+, 100 mmol/L Tris-HCl pH 8.5, 25 °C, apparent
purified protein [2] = substrate: NCCC[C@H](N)C(=O)O; test: purified protein; details: 0.5 mmol/L α-KG, 0.1 mmol/L PLP, 6 mmol/L NAD+, 100 mmol/L Tris-HCl pH 8.5, 25 °C, apparent
purified protein [3] = substrate: O=C(O)CCC(=O)C(=O)O; test: purified protein; assay type: biochemical, Synechocystis sp. PCC 6803; details: 100 mmol/L Orn as amino donor, 0.1 mmol/L PLP, 6 mmol/L NAD+, 100 mmol/L Tris-HCl pH 8.5, 25 °C, apparent
[4] = biological target: the molecule itself; test: SEC; FPLC, Bio-Rad NGC system, ENrich SEC 650 gel filtration column, mobile phase standard PBS without exogenous PLP; mass calibrated with myoglobin, ovalbumin, bovine serum albumin and gamma-globulin
purified protein [5] = substrate: CC(=O)N[C@@H](CCCN)C(=O)O; test: purified protein; assay type: biochemical, Synechocystis sp. PCC 6803; details: saturating α-KG, 0.1 mmol/L PLP, 6 mmol/L NAD+, 100 mmol/L Tris-HCl pH 8.5, 25 °C, apparent

Molecule | Km (purified protein [5]) | kcat (purified protein [5]) | other results
Cc1ncc(COP(=O)(O)O)c(C=O)c1O [PLP] | – | – | UV-visible absorption at 410 nm (internal aldimine) (Slr1022): indicating that the cofactor PLP was bound to Slr1022 in the form of internal aldimine
recombinant Slr1022 protein (N-acetylornithine aminotransferase encoded by slr1022 gene from Synechocystis sp. PCC6803) (enzyme, UniProt P73133 1-429, looked up, N-acetylornithine aminotransferase (AcOAT) encoded by the slr1022 (argD) gene of Synechocystis sp; PCC6803; monomer printed as 49 kDa; The purified protein carries the cofactor PLP as internal aldimine (absorption at 410 nm); also called AcOAT; wild-type Slr1022; source: E. coli BL21 (DE3), pET28a-slr1022, purified (Ni-NTA)) MTYSPVVESVEAQAFAVTDLSPAAEFKTADFDTYVMNTYGRFPIAIARGQGSTLWDTEGKSYLDFVAGIATCTLGHAHPALVRAVSDQIQKLHHVSNLYYIPEQGELAKWIVEHSCADRVFFCNSGAEANEAAIKLVRKYAHTVLDFLEQPVILTAKASFHGRTLATITATGQPKYQQYFDPLVPGFDYVPYNDIRSLENKVADLDEGNSRVAAIFLEPLQGEGGVRPGDLAYFKRVREICDQNDILLVFDEVQVGVGRTGKLWGYEHLGVEPDIFTSAKGLAGGVPIGAMMCKKFCDVFEPGNHASTFGGNPLACAAGLAVLKTIEGDRLLDNVQARGEQLRSGLAEIKNQYPTLFTEVRGWGLINGLEISAESSLTSVEIVKAAMEQGLLLAPAGPKVLRFVPPLVVTEAEIAQAVEILRQAIATLV | – | – | Km (purified protein [1]): 78100 ± 18700 µM; kcat (purified protein [1]): 0.14 s⁻¹; kcat/Km (purified protein [1]): 1.8 M⁻¹ s⁻¹; Km (purified protein [2]): 20900 ± 3500 µM; kcat (purified protein [2]): 0.16 s⁻¹; kcat/Km (purified protein [2]): 7.7 M⁻¹ s⁻¹; Km (purified protein [3]): 130 ± 30 µM; kcat (purified protein [3]): 0.11 ± 0.01 s⁻¹; kcat/Km (purified protein [3]): 846 M⁻¹ s⁻¹; stoichiometry N [4]: 2
Slr1022 (Synechocystis sp. PCC 6803 substr. Kazusa; S125A) (protein) MTYSPVVESVEAQAFAVTDLSPAAEFKTADFDTYVMNTYGRFPIAIARGQGSTLWDTEGKSYLDFVAGIATCTLGHAHPALVRAVSDQIQKLHHVSNLYYIPEQGELAKWIVEHSCADRVFFCNAGAEANEAAIKLVRKYAHTVLDFLEQPVILTAKASFHGRTLATITATGQPKYQQYFDPLVPGFDYVPYNDIRSLENKVADLDEGNSRVAAIFLEPLQGEGGVRPGDLAYFKRVREICDQNDILLVFDEVQVGVGRTGKLWGYEHLGVEPDIFTSAKGLAGGVPIGAMMCKKFCDVFEPGNHASTFGGNPLACAAGLAVLKTIEGDRLLDNVQARGEQLRSGLAEIKNQYPTLFTEVRGWGLINGLEISAESSLTSVEIVKAAMEQGLLLAPAGPKVLRFVPPLVVTEAEIAQAVEILRQAIATLV | 230 ± 20 µM | 0.32 ± 0.01 s⁻¹ | –
Slr1022 (Synechocystis sp. PCC 6803 substr. Kazusa; E223S) (protein) MTYSPVVESVEAQAFAVTDLSPAAEFKTADFDTYVMNTYGRFPIAIARGQGSTLWDTEGKSYLDFVAGIATCTLGHAHPALVRAVSDQIQKLHHVSNLYYIPEQGELAKWIVEHSCADRVFFCNSGAEANEAAIKLVRKYAHTVLDFLEQPVILTAKASFHGRTLATITATGQPKYQQYFDPLVPGFDYVPYNDIRSLENKVADLDEGNSRVAAIFLEPLQGSGGVRPGDLAYFKRVREICDQNDILLVFDEVQVGVGRTGKLWGYEHLGVEPDIFTSAKGLAGGVPIGAMMCKKFCDVFEPGNHASTFGGNPLACAAGLAVLKTIEGDRLLDNVQARGEQLRSGLAEIKNQYPTLFTEVRGWGLINGLEISAESSLTSVEIVKAAMEQGLLLAPAGPKVLRFVPPLVVTEAEIAQAVEILRQAIATLV | 8810 ± 2960 µM | 3.67 ± 0.43 s⁻¹ | –
Slr1022 (Synechocystis sp. PCC 6803 substr. Kazusa; A127S) (protein) MTYSPVVESVEAQAFAVTDLSPAAEFKTADFDTYVMNTYGRFPIAIARGQGSTLWDTEGKSYLDFVAGIATCTLGHAHPALVRAVSDQIQKLHHVSNLYYIPEQGELAKWIVEHSCADRVFFCNSGSEANEAAIKLVRKYAHTVLDFLEQPVILTAKASFHGRTLATITATGQPKYQQYFDPLVPGFDYVPYNDIRSLENKVADLDEGNSRVAAIFLEPLQGEGGVRPGDLAYFKRVREICDQNDILLVFDEVQVGVGRTGKLWGYEHLGVEPDIFTSAKGLAGGVPIGAMMCKKFCDVFEPGNHASTFGGNPLACAAGLAVLKTIEGDRLLDNVQARGEQLRSGLAEIKNQYPTLFTEVRGWGLINGLEISAESSLTSVEIVKAAMEQGLLLAPAGPKVLRFVPPLVVTEAEIAQAVEILRQAIATLV | 590 ± 120 µM | 0.21 ± 0.01 s⁻¹ | –
Slr1022 (Synechocystis sp. PCC 6803 substr. Kazusa; T308A) (protein) MTYSPVVESVEAQAFAVTDLSPAAEFKTADFDTYVMNTYGRFPIAIARGQGSTLWDTEGKSYLDFVAGIATCTLGHAHPALVRAVSDQIQKLHHVSNLYYIPEQGELAKWIVEHSCADRVFFCNSGAEANEAAIKLVRKYAHTVLDFLEQPVILTAKASFHGRTLATITATGQPKYQQYFDPLVPGFDYVPYNDIRSLENKVADLDEGNSRVAAIFLEPLQGEGGVRPGDLAYFKRVREICDQNDILLVFDEVQVGVGRTGKLWGYEHLGVEPDIFTSAKGLAGGVPIGAMMCKKFCDVFEPGNHASAFGGNPLACAAGLAVLKTIEGDRLLDNVQARGEQLRSGLAEIKNQYPTLFTEVRGWGLINGLEISAESSLTSVEIVKAAMEQGLLLAPAGPKVLRFVPPLVVTEAEIAQAVEILRQAIATLV | 140 ± 20 µM | 0.007 ± 0.002 s⁻¹ | –
Slr1022 (Synechocystis sp. PCC 6803 substr. Kazusa; Q254A) (protein) MTYSPVVESVEAQAFAVTDLSPAAEFKTADFDTYVMNTYGRFPIAIARGQGSTLWDTEGKSYLDFVAGIATCTLGHAHPALVRAVSDQIQKLHHVSNLYYIPEQGELAKWIVEHSCADRVFFCNSGAEANEAAIKLVRKYAHTVLDFLEQPVILTAKASFHGRTLATITATGQPKYQQYFDPLVPGFDYVPYNDIRSLENKVADLDEGNSRVAAIFLEPLQGEGGVRPGDLAYFKRVREICDQNDILLVFDEVAVGVGRTGKLWGYEHLGVEPDIFTSAKGLAGGVPIGAMMCKKFCDVFEPGNHASTFGGNPLACAAGLAVLKTIEGDRLLDNVQARGEQLRSGLAEIKNQYPTLFTEVRGWGLINGLEISAESSLTSVEIVKAAMEQGLLLAPAGPKVLRFVPPLVVTEAEIAQAVEILRQAIATLV | 110 ± 10 µM | 0.02 ± 0.0005 s⁻¹ | –
Slr1022 (Synechocystis sp. PCC 6803 substr. Kazusa; E223A) (protein) MTYSPVVESVEAQAFAVTDLSPAAEFKTADFDTYVMNTYGRFPIAIARGQGSTLWDTEGKSYLDFVAGIATCTLGHAHPALVRAVSDQIQKLHHVSNLYYIPEQGELAKWIVEHSCADRVFFCNSGAEANEAAIKLVRKYAHTVLDFLEQPVILTAKASFHGRTLATITATGQPKYQQYFDPLVPGFDYVPYNDIRSLENKVADLDEGNSRVAAIFLEPLQGAGGVRPGDLAYFKRVREICDQNDILLVFDEVQVGVGRTGKLWGYEHLGVEPDIFTSAKGLAGGVPIGAMMCKKFCDVFEPGNHASTFGGNPLACAAGLAVLKTIEGDRLLDNVQARGEQLRSGLAEIKNQYPTLFTEVRGWGLINGLEISAESSLTSVEIVKAAMEQGLLLAPAGPKVLRFVPPLVVTEAEIAQAVEILRQAIATLV | 7770 ± 1760 µM | 1.17 ± 0.09 s⁻¹ | –
Slr1022 (Synechocystis sp. PCC 6803 substr. Kazusa; Y39F) (protein) MTYSPVVESVEAQAFAVTDLSPAAEFKTADFDTYVMNTFGRFPIAIARGQGSTLWDTEGKSYLDFVAGIATCTLGHAHPALVRAVSDQIQKLHHVSNLYYIPEQGELAKWIVEHSCADRVFFCNSGAEANEAAIKLVRKYAHTVLDFLEQPVILTAKASFHGRTLATITATGQPKYQQYFDPLVPGFDYVPYNDIRSLENKVADLDEGNSRVAAIFLEPLQGEGGVRPGDLAYFKRVREICDQNDILLVFDEVQVGVGRTGKLWGYEHLGVEPDIFTSAKGLAGGVPIGAMMCKKFCDVFEPGNHASTFGGNPLACAAGLAVLKTIEGDRLLDNVQARGEQLRSGLAEIKNQYPTLFTEVRGWGLINGLEISAESSLTSVEIVKAAMEQGLLLAPAGPKVLRFVPPLVVTEAEIAQAVEILRQAIATLV | 470 ± 50 µM | 0.17 ± 0.01 s⁻¹ | –
Slr1022 (Synechocystis sp. PCC 6803 substr. Kazusa; D251E) (protein) MTYSPVVESVEAQAFAVTDLSPAAEFKTADFDTYVMNTYGRFPIAIARGQGSTLWDTEGKSYLDFVAGIATCTLGHAHPALVRAVSDQIQKLHHVSNLYYIPEQGELAKWIVEHSCADRVFFCNSGAEANEAAIKLVRKYAHTVLDFLEQPVILTAKASFHGRTLATITATGQPKYQQYFDPLVPGFDYVPYNDIRSLENKVADLDEGNSRVAAIFLEPLQGEGGVRPGDLAYFKRVREICDQNDILLVFEEVQVGVGRTGKLWGYEHLGVEPDIFTSAKGLAGGVPIGAMMCKKFCDVFEPGNHASTFGGNPLACAAGLAVLKTIEGDRLLDNVQARGEQLRSGLAEIKNQYPTLFTEVRGWGLINGLEISAESSLTSVEIVKAAMEQGLLLAPAGPKVLRFVPPLVVTEAEIAQAVEILRQAIATLV | 1390 ± 220 µM | 0.47 ± 0.03 s⁻¹ | –
